Values joined by “and” are separate entries in the source; they are usually repeats but may differ in a detail not shown here. Equal values may be shown once.

Results on 1 protein are retold here after PMC6812618 (Journal of biological inorganic chemistry : JBIC : a …, 2019).

This data set concerns the molecule itself. Kind of data set: AUC.

B1: human BOLA3 (natural protein, UniProt Q53S33 25-107, looked up)
chain: MFATQTEGELRVTQILKEKFPRATAIKVTDISGGCGAMYEIKIESEEFKEKRTVQQHQMVNQALKEEIKEMHGLRIFTSVPKR
For B1, the stoichiometry N – broadly, a count of units in the complex or per binding partner – was 2 and 4.
